The values below come from PMC7190724, “Improved GPCR ligands from nanobody tethering” (Nature Communications, 2020).

In one assay the target is T1, PTHR1_(6E) (Homo sapiens PTHR1 with 14-residue …, UniProt Q03431, chimera).
T1 construct: PTHR1 from its start to the replaced 14-residue fragment of exon 2; replaces 14 residues of exon 2; PTHR1 from the end of the replaced fragment of exon 2 to its end; Made with the Q5 site-directed mutagenesis kit; whole receptor on cells; source: HEK293, stably transfected, on cells
Nature of the assay: flow cytometry on cells; dose response of staining with VHH-Alexafluor647 (median fluorescent intensity); cells in PBS, 1 h on ice; curves without plateau constrained to the plateau seen with other VHHs. To be noted: one partner purified.

A further assay addresses T2, rat PTHR1 (Rattus norvegicus, UniProt P25961).
T2 construct: parathyroid hormone receptor-1, rat; also called rPTHR1; source: HEK293, stably transfected (GR35), on cells
Nature of the assay: flow cytometry on cells; HEK293 cell lines stably transfected with PTHRs, in suspension, incubated on ice with 100 nM VHH sortagged with Alexafluor647, pelleted, washed and analysed. The conditions noted are these: one partner purified.

T2 sequence (P25961 27-591): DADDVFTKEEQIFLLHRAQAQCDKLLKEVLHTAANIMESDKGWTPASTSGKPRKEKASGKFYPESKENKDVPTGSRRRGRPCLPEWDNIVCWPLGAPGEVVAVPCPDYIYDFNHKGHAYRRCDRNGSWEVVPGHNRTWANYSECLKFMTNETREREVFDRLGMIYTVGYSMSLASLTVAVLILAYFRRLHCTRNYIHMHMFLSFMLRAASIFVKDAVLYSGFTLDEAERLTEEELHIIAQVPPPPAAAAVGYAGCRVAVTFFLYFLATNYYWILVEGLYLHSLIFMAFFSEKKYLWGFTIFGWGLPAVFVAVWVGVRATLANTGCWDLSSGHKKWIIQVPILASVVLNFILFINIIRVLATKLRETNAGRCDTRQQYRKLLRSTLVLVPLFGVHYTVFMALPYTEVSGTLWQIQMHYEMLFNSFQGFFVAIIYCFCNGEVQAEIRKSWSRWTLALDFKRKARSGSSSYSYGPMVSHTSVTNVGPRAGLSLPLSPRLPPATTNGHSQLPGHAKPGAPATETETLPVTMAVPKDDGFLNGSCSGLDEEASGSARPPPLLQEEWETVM
T1 sequence (Q03431 whole entry, looked up, change not shown, the tested form may be a part): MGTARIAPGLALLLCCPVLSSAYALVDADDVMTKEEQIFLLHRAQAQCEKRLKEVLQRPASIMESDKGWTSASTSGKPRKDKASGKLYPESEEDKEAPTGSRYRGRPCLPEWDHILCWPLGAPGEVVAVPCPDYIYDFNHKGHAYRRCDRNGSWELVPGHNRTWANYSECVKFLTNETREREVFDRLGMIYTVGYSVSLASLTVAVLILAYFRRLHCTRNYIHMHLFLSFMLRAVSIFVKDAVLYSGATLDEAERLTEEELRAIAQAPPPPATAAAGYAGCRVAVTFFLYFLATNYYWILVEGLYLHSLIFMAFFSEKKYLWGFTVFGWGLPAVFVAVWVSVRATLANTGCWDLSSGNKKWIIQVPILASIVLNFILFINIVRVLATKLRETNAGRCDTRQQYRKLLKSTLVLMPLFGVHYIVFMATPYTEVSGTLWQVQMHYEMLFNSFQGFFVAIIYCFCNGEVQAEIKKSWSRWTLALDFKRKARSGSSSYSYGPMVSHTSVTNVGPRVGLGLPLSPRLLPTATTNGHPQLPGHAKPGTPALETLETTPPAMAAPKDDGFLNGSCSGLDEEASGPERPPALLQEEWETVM

B1: VHH6E (VHH)
VHH: QVQLQESGGGLVQPGGSLRLSCAASGFVFENSAMAWYRQAPGKERELIAVIGTTFIKLAESVKGRFTISRDNAKSTVYLQMNNLKPEDTAVYYCSKSGAYWGQGTQVTVSS
notes: VHH05; sortase motif of the expressed construct PelB-VHH-LPETGG-His6; on sortagging what follows LPET is replaced by the GGG of the label; Recognises a 14-mer peptide of UBC6e; also called VHH05; source: E. coli WK6 (pHEN6 vector), osmotic shock, purified (Ni-NTA), then sortagged; not shown: His6, C-terminal, cleaved
As to B1, the EC50 in the assay with PTHR1_(6E) was below 10 nM.

B2: VHH_(PTHR) (VHH)
VHH: EVQLVESGGGLVQAGGSLRLSCAASGNIFANNIMGWYRQPPGKEREFVAHVSHDGDSMYAVSVKGRFAISRKDATNLYLQMNSLKPEDTAIYFCRLLNIPTQGRMEGFWGQGTQVTVSS
notes: VHH 22A3; sortase motif of the expressed construct PelB-VHH-LPETGG-His6; on sortagging what follows LPET is replaced by the GGG of the label; Expressed as PelB-VHH-LPETGG-His6; also called 22A3; VHH_(PTHR)-tetramethylrhodamine; source: E. coli WK6 (pHEN6 vector), osmotic shock, purified (Ni-NTA), then sortagged; not shown: His6, C-terminal, cleaved
Turning to B2, the binding result in the assay with rat PTHR1 is “binds”.
